From paper PMC4764080 (Cell, 2009)
One block for each molecule: values may come before it. Square brackets hold non-standard residues; d marks the D form. pY = N[C@@H](Cc1ccc(OP(=O)(O)O)cc1)C(=O)O

Legend:
PLCγ pY783 = assay: Tyrosine phosphorylation of PLCγ; assay type: cell-based; conditions: L6 myoblasts stably expressing FGFR1; 100 ng/mL FGF, 5 min, 37 °C; anti-pY783 (PLCγ) immunoblot
[1] = target: FGFR1-3P (trisphosphorylated cytoplasmic region of FGFR1: tyrosine kinase domain and C-terminal tail) (UniProt P11362); assay: SPR
[2] = target: FGFR1-3P (trisphosphorylated cytoplasmic region of FGFR1: tyrosine kinase domain and C-terminal tail) (UniProt P11362); assay: SPR; remark: listed apart in the source
[3] = target: pY766 peptide (synthetic phosphopeptide of the C-terminal region of FGFR1, TSNQEpYLDLSM); assay: SPR
[4] = target: FGFR1-3P (trisphosphorylated cytoplasmic region of FGFR1: tyrosine kinase domain and C-terminal tail) (UniProt P11362); assay: ITC
FGFR1-3P(VV/DD) = FGFR1-3P(VV/DD) (UniProt P11362); assay: ITC
FGFR1-3P(RD/VV) = FGFR1-3P(RD/VV) (UniProt P11362); assay: ITC
[5] = target: T1, isolated C-SH2 domain of PLCγ (rat); assay: ITC
T1 sequence (P10686 whole entry, looked up): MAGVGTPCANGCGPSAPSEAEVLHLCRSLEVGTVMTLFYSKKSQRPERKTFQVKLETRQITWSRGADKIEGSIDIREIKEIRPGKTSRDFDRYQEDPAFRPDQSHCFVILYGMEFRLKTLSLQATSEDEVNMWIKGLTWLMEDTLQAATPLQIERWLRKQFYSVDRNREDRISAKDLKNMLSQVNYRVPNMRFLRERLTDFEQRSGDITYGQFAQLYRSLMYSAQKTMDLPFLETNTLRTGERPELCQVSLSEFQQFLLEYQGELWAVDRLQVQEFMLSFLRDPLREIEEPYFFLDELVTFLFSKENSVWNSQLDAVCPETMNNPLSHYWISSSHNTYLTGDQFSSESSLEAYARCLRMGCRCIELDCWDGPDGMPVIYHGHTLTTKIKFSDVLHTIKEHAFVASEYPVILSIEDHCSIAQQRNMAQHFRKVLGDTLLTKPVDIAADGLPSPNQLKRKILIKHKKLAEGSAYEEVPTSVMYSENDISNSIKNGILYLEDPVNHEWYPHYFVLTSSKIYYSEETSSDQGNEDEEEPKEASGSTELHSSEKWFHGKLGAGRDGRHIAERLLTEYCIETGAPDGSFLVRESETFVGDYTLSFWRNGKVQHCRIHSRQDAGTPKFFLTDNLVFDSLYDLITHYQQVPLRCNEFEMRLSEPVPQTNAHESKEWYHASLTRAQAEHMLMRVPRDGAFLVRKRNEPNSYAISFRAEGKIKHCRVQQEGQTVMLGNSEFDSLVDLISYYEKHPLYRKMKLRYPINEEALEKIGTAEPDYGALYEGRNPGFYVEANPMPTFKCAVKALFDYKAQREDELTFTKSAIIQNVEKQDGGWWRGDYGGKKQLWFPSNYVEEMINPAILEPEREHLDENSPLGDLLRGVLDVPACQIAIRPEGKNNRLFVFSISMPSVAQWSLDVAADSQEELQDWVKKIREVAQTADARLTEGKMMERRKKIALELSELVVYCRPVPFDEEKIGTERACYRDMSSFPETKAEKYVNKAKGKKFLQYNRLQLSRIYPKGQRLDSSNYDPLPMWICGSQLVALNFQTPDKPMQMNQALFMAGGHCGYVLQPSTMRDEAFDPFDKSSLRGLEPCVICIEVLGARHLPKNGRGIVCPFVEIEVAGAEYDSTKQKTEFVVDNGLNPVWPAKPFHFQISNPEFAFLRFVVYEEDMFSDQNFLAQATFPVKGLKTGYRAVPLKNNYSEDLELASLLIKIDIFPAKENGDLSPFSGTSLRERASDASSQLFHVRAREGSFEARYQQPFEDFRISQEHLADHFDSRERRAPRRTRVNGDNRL

[6] = target: T2, isolated N-SH2 domain of PLCγ (rat); assay: ITC
T2 sequence (P10686 whole entry, looked up): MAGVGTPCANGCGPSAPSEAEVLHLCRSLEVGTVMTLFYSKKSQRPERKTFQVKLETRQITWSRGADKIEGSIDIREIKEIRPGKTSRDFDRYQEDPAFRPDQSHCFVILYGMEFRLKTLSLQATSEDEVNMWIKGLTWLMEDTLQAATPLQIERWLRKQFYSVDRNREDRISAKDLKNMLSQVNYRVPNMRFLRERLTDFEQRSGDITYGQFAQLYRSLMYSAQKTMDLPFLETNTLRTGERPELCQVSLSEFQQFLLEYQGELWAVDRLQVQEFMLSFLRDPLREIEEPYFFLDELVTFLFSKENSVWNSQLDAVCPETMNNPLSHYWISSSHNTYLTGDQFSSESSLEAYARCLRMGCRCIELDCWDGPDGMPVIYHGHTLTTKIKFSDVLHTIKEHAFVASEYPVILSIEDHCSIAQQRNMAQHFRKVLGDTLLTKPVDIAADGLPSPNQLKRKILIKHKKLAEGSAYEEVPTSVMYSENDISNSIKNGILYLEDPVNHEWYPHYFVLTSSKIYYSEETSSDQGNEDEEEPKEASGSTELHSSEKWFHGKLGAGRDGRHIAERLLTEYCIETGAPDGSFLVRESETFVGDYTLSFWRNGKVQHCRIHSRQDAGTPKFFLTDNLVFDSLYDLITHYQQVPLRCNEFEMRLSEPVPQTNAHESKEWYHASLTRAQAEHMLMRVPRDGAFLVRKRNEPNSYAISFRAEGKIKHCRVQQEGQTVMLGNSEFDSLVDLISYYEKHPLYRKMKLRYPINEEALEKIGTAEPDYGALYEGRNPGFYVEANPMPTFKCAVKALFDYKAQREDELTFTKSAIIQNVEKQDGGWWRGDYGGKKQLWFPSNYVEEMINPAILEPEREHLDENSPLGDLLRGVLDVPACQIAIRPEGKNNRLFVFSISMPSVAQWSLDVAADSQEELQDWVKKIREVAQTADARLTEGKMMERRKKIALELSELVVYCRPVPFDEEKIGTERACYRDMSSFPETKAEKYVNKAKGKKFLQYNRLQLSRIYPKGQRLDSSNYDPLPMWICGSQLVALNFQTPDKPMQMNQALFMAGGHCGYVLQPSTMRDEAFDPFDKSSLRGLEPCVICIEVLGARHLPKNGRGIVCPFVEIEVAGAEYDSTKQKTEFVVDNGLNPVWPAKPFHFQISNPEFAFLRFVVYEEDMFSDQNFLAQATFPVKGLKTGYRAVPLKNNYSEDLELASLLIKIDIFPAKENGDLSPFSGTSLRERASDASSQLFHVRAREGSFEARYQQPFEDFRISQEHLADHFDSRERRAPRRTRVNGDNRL

Molecule: FGFR1(Y766F): FGFR1 mutant Y766F in the primary binding site for the N-SH2 domain, expressed in L6 myoblasts
tyrosine phosphorylation of PLCγ (PLCγ pY783): negligible tyrosine phosphorylation of PLCγ

Kd [1]: 44 nM | Kd [2]: 142 nM | Kd [3]: 5670 nM | Kd [4]: 33 nM | Kd (FGFR1-3P(VV/DD)): 221 nM | Kd (FGFR1-3P(RD/VV)): 112 nM
Molecule: isolated N-SH2 domain of PLCγ (domain or fragment)

Kd [4]: 490 nM
Molecule: isolated C-SH2 domain of PLCγ (domain or fragment)

Molecule: WT FGFR1: wild type FGFR1 stably expressed in L6 myoblasts
tyrosine phosphorylation of PLCγ (PLCγ pY783): tyrosine phosphorylation of PLCγ

Kd [5]: 1810 nM | Kd [6]: 433 nM
Molecule: {biotin‑XX}-TSNQE[pY]LDLSM-NH2 [pY766 peptide (synthetic phosphopeptide of the C-terminal region of FGFR1, TSNQEpYLDLSM)]
